This data set addresses Aβ1-40 peptide (UniProt P05067).

Consider “hGCP II (wild type human glutamate carboxypeptidase II expressed from cDNA in cells)”, for which the “Aβ1-40 cleavage in primary rat astrocytes (Aβ1-40 in growth medium by ELISA)” value was 2-PMPA did not block A1-40 cleavage of lentiviral GCP II.
